Assay results: PMC3135652 (Journal of immunology (Baltimore, Md. : 1950), 2009)

Target: T1, Recombinant truncated p115 (p115 702-962), carboxy-terminal histidine tag (human, UniProt O60763 702-962)
T1 sequence (looked up): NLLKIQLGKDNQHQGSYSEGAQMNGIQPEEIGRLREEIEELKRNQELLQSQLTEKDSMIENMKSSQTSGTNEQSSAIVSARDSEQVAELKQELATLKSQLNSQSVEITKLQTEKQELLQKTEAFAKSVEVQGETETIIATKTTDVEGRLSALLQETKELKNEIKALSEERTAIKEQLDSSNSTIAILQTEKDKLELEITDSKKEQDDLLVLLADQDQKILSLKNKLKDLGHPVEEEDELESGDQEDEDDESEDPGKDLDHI
Assay: ELISA

- binding result: binds
B1: Biotinylated recombinant human MIF (natural protein, UniProt P14174 1-115, looked up)
chain: MPMFIVNTNVPRASVPDGFLSELTQQLAQATGKPPQYIAVHVVPDQLMAFGGSSEPCALCSLHSIGKIGGAQNRSYSKLLCGLLAERLRISPDRVYINYYDMNAANVGWNNSTFA
modifications: biotin (Biotin Protein Labeling Kit, Roche)
